This note sets out measurements from patent US20230272089A1 (SYNTHEKINE, published 2023).

In the experiment the target is T1, hIL2Rg ECD antigen (human, UniProt P31785 23-262).
T1 construct: Antigen of biopanning and PE-ELISA; also called extracellular domain of human IL2Rg; CD132 ECD
T1 sequence: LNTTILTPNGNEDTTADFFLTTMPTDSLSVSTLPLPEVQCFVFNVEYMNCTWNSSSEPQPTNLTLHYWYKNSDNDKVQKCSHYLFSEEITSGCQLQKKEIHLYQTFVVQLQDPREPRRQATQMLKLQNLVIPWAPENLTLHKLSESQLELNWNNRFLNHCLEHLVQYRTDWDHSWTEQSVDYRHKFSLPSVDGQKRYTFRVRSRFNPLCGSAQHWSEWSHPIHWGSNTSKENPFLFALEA
In words: periplasmic extract ELISA (PE-ELISA) of phage clones after biopanning. (An ELISA detects its analyte on a solid surface through an enzyme-linked reagent.)

B1: hIL2Rg_VHH-15 (VHH)
VHH: QVQLQESGGGLVQPGGSLRLSCAASGFTFSSAHMSWVRQAPGKGREWIASIYSGGGTFYADSVKGRFTISRDNAKNTLYLQLNSLKAEDTAMYYCATNRLHYYSDDDSLRGQGTQVTVSS
notes: Periplasmic extract of a phage clone, as in the PE-ELISA; not shown: HA/His tag of the pMECS phagemid
Consider B1, for which the binding result was “binds”.
